Laboratory results: a protein production outcome set (Wang et al. 2014)

Experiment: label from the status in PepcDB records

Sequence	protein production
MNPITELLDATLWIGGVPILWREIIGNVFGLFSAWAGMRRIVWAWPIGIIGNALLFTVFMGGLFHTPQNLDLYGQAGRQIMFIIVSGYGWYQWSAAKRRALTPENAVAVVPRWASTKERAGIVIAAVVGTLSFAWIFQALGSWGPWADAWIFVGSILATYGMARGWTEFWLIWIAVDIVGVPLLLTAGYYPSAVLYLVYGAFVSWGFVVWLRVQKADKARALEAQESVTV	failed
SADSEADKPLRKISAAFKKLAIIVNSPNPEVPVTQFSHACSLVSPLFGCLGIAFKFAEMDYVAKVDDLVRASSSISTLVVMMDKDIEADCVRKAGSHTRNLLRVKRGLDMVKVLFEQIIASEGDNSLKDPATKSYAQVFAPHHGWAIRKAVSLGMYALPTRAHLLNMLKEDEAAAKIHMQSYVNSSAPLITYLDNLFLSKQLGIDW	failed
NAQARFSQNLLDQGSHPTSEKLLSVLRPASGHVADALGITEGENVIHLRTLRRVNGVALCLIDHYFADLTLWPTLQRFDSGSLHDFLREQTGIALRRSQTRISARRAQAKECQRLEIPNMSPLLCVRTLNHRDGESSPAEYSVSLTRADMIEFTMEH	not failed
MTDIFLEGGRALIGTELVETSLSVAGTDIARVDAARGRARLAIDARNLLVLPGIVDLHGDAFERQMMPRAGVDFPIDVALADSDRQAISNGITTVFHATTCSWEPGLRSADNARGLMEAIERQRPQFAADTRFHLRHETYNLDAEAEISRWLAEGRVDLFAFNDHMDGTVADMAKPRKRNRMVERTGLSSEDFDGLVDRVISRAADVPASVSRLAASARAADVRMLSHDDATPAMRREFRELGADIAEFPINEETARAAASHGDAIVYGAPNVVRGGSHTGWTRASDMIAKGLCSVLASDYYYPAQLLAAFRLAADGVLPLTEAWSLVSAEPARAAGLADRGILAEGRRADILLVDDTVPLRPRLVAVISGGKLVHLTDATRLLSAAAAPREAVVAA	failed
MGTKVSDMQKNVTPGRRKGCPNYPPEFKQQLVAASCEPGISISKLALENGINANLLFKWRQQWREGKLLLPSSESPQLLPVTLDAAAEQPESLAEDPETLSISCEVTFRHGTLRFNGNVSEKLLTLLIQELKR	failed
MIIPGIAAAETCPDGYKNVSVCKAEKMVEKEDVFLLDVRTPAEFNKTHIEGTILIPVKNVPAQDPVELSSDELLEVRINEVPADEKILVYCKSGARSAAACSLLVSNGYRKVYNMRGGIDCWLARGCTVDVNADKADELLGTGEFFLLDVRTPAEFNAGYIEGAILIPLKNVPKEDPVELPPEKLLAQCLCEIPENKPILVYCKSGTRSDAARDLLVDSGYRHVYNLEGGILTWKAEGYPTVCPAI	failed
MFLRIANKILKRLAGVQVIPVNKKRLSVLDNKHLHIASNSILLEGTSLDFRQEISSSDTYVSIGGYCLIKAIFTFETTTGLITIGNNVHIGNAHFICRSAITIHDDVTMAWGITLYDHNSHSIHWEERKDDNKTCYEDFVQHHGNNIVNKNWINVLSRPIVIESKAWIGFNVTILKGVTIGEGAVIGACSVVTKDVPAWTVVAGNPAAVVKHLQKPE	failed
MGHHHHHHSHMAAPEAEVLSSAAVPDLEWYEKSEETHASQIELLETSSTQEPLNASEAFCPRDCMVPVVFPGPVSQEGCCQFTCELLKHIMYQRQQLPLPYEQLKHFYRKPSPQAEEMLKKKPRATTEVSSRKCQQALAELESVLSHLEDFFARTLVPRVLILLGGNALSPKEFYELDLSLLAPYSVDQSLSTAACLRRLFRAIFMADAFSELQAPPLMGTVVMAQGHRNCGEDWFRPKLNYRVPSRGHKLTVTLSCGRPSIRTTAWEDYIWFQAPVTFKGFRE	failed
LLPKYNILTEDQVQKIHENTMKILEEIGIEFEYEPALEVFRREGQKVEGKRVYLTREFVESKLKSAPAEFTLHARNPENNVVIGGDNIVFMPGYGAPFIYELDGSRRKTTLQDYENFAKLAGASKNMHLSGGTMAEPQDIPDGVRHLQMLYSSIKNSDKCFMGSAEGKERAEDSVEIAAILFGGKDVIKEKPVLVSLINSLTPLKYDERMLGALMAYAEAGQAVIIASLVMAGSTGPASLAGTLSLQNAEVLAGISLAQSINPGTPVIYGSTSALSDMRSGSLSIGSPECALFISASAQLARFYGVPSRSGGGLNDSKTVDAQAGYESMMTLMAANLTGVNFVLHTAGILQYFMAMSYEKFIMDDEIAGMLLHYMKGYTFDEDGMAFDVIEKVGPGGHFLTQKHTRKNHKREFYTPTLSDRSAYDTWAKEKLETKQRAHARWQQILANYVPPALDPEIDAKLQAFIAQRGKEVGEE	not failed
MTFRKPPPTMKPTRSLSASLFSDPHPAAYLAAFAAVMATAVARLYLPEAFTAPSSFLLFVPAVLISAALGGVGPGVFGTTFAWAAVWWVTRDIPFDLVSGLSAAIFLSVGFGMAVGGGWFHAARRRAAAVNDHLRSILDTVPDAVVVIDRAGIMTSFSPAAQRMFGWSEAEAIGKNVSLLMPEPYQSAHDGYLDRYARTGEKRIIGAGRVVVGRRKDGSTFPMELAVGETRGPTPSFTGFIRDLTERQETETRLQELQNELVHVSRLTAMGEMASTLAHELNQPLSAIANLLTGSRRLMDRGREADQAKVRDAIDRAAAQALRAGEVIHRMRDFARRGASEREVESLSKLIEEASALALIGEKERQVDVRLKLDPKADDVFADRVQIQQVLLNLIRNGIDAMQAQEPRKRALLIRTGLTEEGWSEVSVADTGPGIAPEVLERLFQPFMTTKPQGMGVGLSISRSIIEAHGGRIWAEANPGGGALFRFTLPPAESLAGEKETIDD	failed
MANKKIDHREEAIELLKQDAKRILQLIKVQMDNLTLPQCPAYEEVLDTQMYGLSREINFATRLGLIEPEEGKKLISTLEKELSALHELSMSKK	not failed
MTGKAKPKKHTAKEIQAKIDAALTNRGGGKAGIADRTGKEKGGHAKYECPHCKITAPGLKTMQIHHESKHPNIIYEESKLVNLHAVLAPVAESKPKPGIRGSLKK	failed
MKRDGHTHTEFCPHGTHDDVEEMILKAIELDFDEYSIVEHAPLSSEFMKNTAGNQEAVTTASMSMSDLPYYFKKMNQMKKKYASDLLIHIGFEVDYLIGYEDFTRDFLNEYGPQTDDGVLSLHFLEGQGGFRSIDFTAEDYNEGIVQFYGGFEQAQLVYLAGVKQSIEADLGAFKPRRIGHISLCQKFQQFFGADGRDFTAEVIAEFEAILALVKKRGYELDFNTAGLFKPLCKETYPPKEIVTLARALEIPFVYGSDSHGVADIGRGYNTYCQKLEHHHHHH	not failed
MPRFRSVFLALLVVPLVDAVFLVFVAGELGWQLTVALVVLTALLGTLFVRAEGRATLSRLQASVARGDPPTNELVDGGLLIAAGAFLLTPGLVTDALGFLIVIPVTRVAFRWGVKRYVTPKLDAKTGGFVSGNVYTFGFPGGDGGAGGDPRSGFGGGAGDGDDDTINLGDDAYDVSFEDDADGDQ	failed
MGHHHHHHSHCSSCSTPLYDQGGPVEILPFLYLGSAYHASRKDMLDALGITALINVSANCPNHFEGHYQYKSIPVEDNHKADISSWFNEAIDFIDSIKNAGGRVFVHCQAGISRSATICLAYLMRTNRVKLDEAFEFVKQRRSIISPNFSFMGQLLQFESQVLAPHCSAEAGSPAMAVLDRGTSTTTVFNFPVSIPVHSTNSALSYLQSPITTSPSC	failed
MARGLNRVFLIGALATRPDMRYTPAGLAILDLTLAGQDLLLSDNGGEREVSWYHRVRLLGRQAEMWGDLLDQGQLVFVEGRLEYRQWEREGERRSELQIRADFLDPLDDRGKERAEDSRGQPRLRAALNQVFLMGNLTRDPELRYTPQGTAVARLGLAVNERRQGAEERTHFVEVQAWRDLAEWAAELRKGDGLFVIGRLVNDSWTSSSGERRFQTRVEALRLERPTRGPAQAGGSRSREVQTGGVDIDEGLEDFPPEEELPF	not failed
MKRSDNVSWSQLKGGIFILVALAFFAGGVLLMGDKTKFFVPKGRLSVIMADVAGLKAGAPVWLAGVDVGVVTQIHFERPEATNEVEIVLEVDREALKKIGADSVVTVKTRGLMGEKYVDITPTREIVAKPVTRLQGTPMPKLDDVVQKAGRAFDRVDAIVAKTERGEGTLGRFASDPKLYDSLVRLTTELNAVAVSVNRGEGTLGMLNKSREPYEKLMSILNRADNTLTDIQSSEGTMSKLIHDRELYDKLVAVASKAGTAADEVRELNRRLLSKDGTLGKLVADREFYDRGLTLINRADTSLKSLEEVTARLQRGEGTAGKLLSDRELYDRLNRTVDDLDLLVKDIKENPKRYVKFSVFLEHHHHHH	failed
ILELIAKGKPASKIYAEIALMYEERHSGLRCSMLELKGGKLLHAGAPSLPKSYCKAVHGLEYGPQVGSCGTSTYTGKRVLVENIATDPKWADLKYVALPYGMRSCWSEPIKSSSGKVLGAFGMYHDYPALPNEQESNDLTSAARLAGIVMEREQNQKRIQ	failed
MSGQHRTRVGGVILAAGRSSRYESGNKLLATIDGKAVVRQVTETACKSSLSDAVAVLGHEKVAVAAALDGLSLSVQHNDEYATGQSASVRHGVEFARSAGWDAALFLLGDMPFVRVETIEELLEAYRTGTATVVVPEHEGRRGNPVLFDNCHFDSLASVSGDRGGRDIIETTEKTAFIEVSDPGVHWDIDTDADLAEFTDRRDSLLEHHHHHH	not failed
MASHQEQSYKAGETRGKAQEKTGEAMGTMGDKTQAAKDKTQETAQSAQQKAHETAQSAKDKTSQAAQTTQERAQESKDKTGSYMSETGEAIKNKAHDAAEYTKETAEAGKEKTSGILGQTGEQVKQMAMGATDAVKHTLGLRTDEGNKEHVSSAPSTTTTTTTRETQRK	failed
METRARYVLIGIFTLASILATLGFLLWLAKVQLDRTYAEYDILFTSVEGLGRASPVRYNGVDVGEVLNIAVDAEDPSLVRVRIQLAATTPVRTDTKAQVASQGVTGVSYVSLSGGAAPEPLTAEGDQWPPVIPSERSAVQALTADAPTLLAEAIALLKDIQTFTGPENRAAVESILTNADASVQNIAAITRDAAEATSRLNDFTARLDAMADRADVALASLETALEEGKGAAASARDTFEAVNRVVDRDVPPMIAQIRSAVSGIERSVAGIRNFADNGLPQYATLAAETRRTVTNLNSLIAQISRDPARFFLGSQTPSYRR	failed
MPITVHAYTSLDNEEIRTQLERLYDTSPEFGDGQDAIEQLEQNLAQYTTVYTAEFNTKIIGAIWCTGQGESKILEYIVVHPANRGRGIAERLVSEVCRMEEAKGVTMFEPGCGAIHRCLAHIGKLSV	failed
MQMLSRIHRETCSQDVNECGMKPRPCQHRCVNTHGSYKCFCLSGHMLMPDATCVNSRTCAMINCQYSCEDTEEGPQCLCPSSGLRLAPNGRDCLDIDECASGKVICPYNRRCVNTFGSYYCKCHIGFELQYISGRYDCIDINECTMDSHTCSHHANCFNTQGSFKCKCKQGYKGNGLRCSAIPENSVKEVLRAPGTIKDRIKKLLAHKNSMKKKAKIKNVTPEPTRTPTPKVNLQPFNYEEIVSRGGNSHGGKKGNEEKMKEGLEDEKREEKALKNDIEERSLRGDVFFPKVNEAGEFGLILVQRKALTSKLEHKDLNISVDCSFNHGICDWKQDREDDFDWNPADRDNAIGFYMAVPALAGHKKDIGRLKLLLPDLQPQSNFCLLFDYRLAGDKVGKLRVFVKNSNNALAWEKTTSEDEKWKTGKIQLYQGTDATKSIIFEAERGKGKTGEIAVDGVLLVSGLCPDSLLSVDD	failed
MKNLNYGIIGLGKFGSVVADELIAGGHTVIVADKDEEALKSIQNPPSYAYILDSTNISALKEAGFHDVEVVIVSIGENVEKSILTLMALKDIGVKNIIAKATSNIHGQILSKLGATKVIYPEKESAKRLVKEFLTKDADYEVFDLSANTIRAIKINIDEKLAGNSLKHVAQNMKVISYKKLNSDWEILPDLETTTVYSGDVVILLGTVKELREFEH	failed
